Assay results reported in US20240158510A1 (GOVERNING COUNCIL OF THE UNIVERSITY OF TORONTO, published 2024).

Experiments:
[1] = target: T1, integrin αvβ6 expressed on CHO cells (UniProt P06756 31-1048; P18564 22-788, limits assumed); experiment: flow cytometry titration on AvB6 CHO cells
T1 construct: whole, on cells
Description: (§1) Adherent cells were brought into suspension using PBS supplemented with 10 mM ethylenediaminetetraacetic acid (EDTA). The cells were washed with PBS, resuspended in PBS supplemented with 1% BSA, and incubated for 15 minutes at 4° C. The cells were labelled with 50 μl of Fab-phage culture supernatant, or 500 nM Fab, or IgG for 30 minutes at 4° C., then washed with PBS and resuspended in PBS supplemented with 1% BSA. Next, the cells were labelled with anti-Fab (for Fab-phage), or anti-Flag (for Fabs) or anti-Fc (for IgGs) conjugated Alexa-488 secondary Ab according to manufacturer's instructions. Data were collected using a CytoFLEX-S flow-cytometer using a 488-nm laser with 530/25 nm filter settings. The cells were analyzed in PBS, and all acquired live events were greater than 10,000 cells per sample. Quantitation analysis was carried out using FlowJo v10.2 Software. For Ab cellular titration analysis, the Abs were added to antigen positive cells in duplicate samples from a range of 500 pM to 1 μM. The mean fluorescence signal values were subtracted from the control antigen negative cells signals, and EC50 determined using Graph-pad Prism, where x is the Fab concentration: […]

[2] = target: T2, integrin αvβ1 expressed on CHO cells (UniProt P06756 31-1048; P05556 21-798, limits assumed); experiment: cell-based or functional assay
[3] = target: T3, integrin αvβ3 expressed on CHO cells (UniProt P06756 31-1048; P05106 27-788, limits assumed); experiment: flow cytometry titration on AvB3 CHO cells
T3 construct: whole, on cells
Description: as §1

[4] = target: T2, integrin αvβ1 expressed on CHO cells; experiment: flow cytometry titration on AvB1 CHO cells
Description: as §1

[5] = target: T2, integrin αvβ1 expressed on CHO cells; experiment: flow cytometry titration on integrin-αvβ1 CHO cells (curves in FIG. 12K)
Description: as §1

[6] = target: T4, integrin αvβ8 expressed on CHO cells (UniProt P06756 31-1048; P26012 43-769, limits assumed); experiment: cell-based or functional assay
[7] = target: T1, integrin αvβ6 expressed on CHO cells; experiment: cell-based or functional assay
[8] = target: T5, integrin αvβ5 expressed on CHO cells (UniProt P06756 31-1048; P18084 24-799, limits assumed); experiment: cell-based or functional assay
[9] = target: T3, integrin αvβ3 expressed on CHO cells; experiment: cell-based or functional assay
[10] = target: T2, integrin αvβ1 expressed on CHO cells; experiment: cell-based or functional assay; remark: listed apart in the source
[11] = target: T5, integrin αvβ5 expressed on CHO cells; experiment: flow cytometry titration on AvB5 CHO cells
Description: as §1

[12] = target: T4, integrin αvβ8 expressed on CHO cells; experiment: flow cytometry titration on AvB8 CHO cells
Description: as §1

T2 sequence (P06756 31-1048 limits assumed, chain 1 of 2): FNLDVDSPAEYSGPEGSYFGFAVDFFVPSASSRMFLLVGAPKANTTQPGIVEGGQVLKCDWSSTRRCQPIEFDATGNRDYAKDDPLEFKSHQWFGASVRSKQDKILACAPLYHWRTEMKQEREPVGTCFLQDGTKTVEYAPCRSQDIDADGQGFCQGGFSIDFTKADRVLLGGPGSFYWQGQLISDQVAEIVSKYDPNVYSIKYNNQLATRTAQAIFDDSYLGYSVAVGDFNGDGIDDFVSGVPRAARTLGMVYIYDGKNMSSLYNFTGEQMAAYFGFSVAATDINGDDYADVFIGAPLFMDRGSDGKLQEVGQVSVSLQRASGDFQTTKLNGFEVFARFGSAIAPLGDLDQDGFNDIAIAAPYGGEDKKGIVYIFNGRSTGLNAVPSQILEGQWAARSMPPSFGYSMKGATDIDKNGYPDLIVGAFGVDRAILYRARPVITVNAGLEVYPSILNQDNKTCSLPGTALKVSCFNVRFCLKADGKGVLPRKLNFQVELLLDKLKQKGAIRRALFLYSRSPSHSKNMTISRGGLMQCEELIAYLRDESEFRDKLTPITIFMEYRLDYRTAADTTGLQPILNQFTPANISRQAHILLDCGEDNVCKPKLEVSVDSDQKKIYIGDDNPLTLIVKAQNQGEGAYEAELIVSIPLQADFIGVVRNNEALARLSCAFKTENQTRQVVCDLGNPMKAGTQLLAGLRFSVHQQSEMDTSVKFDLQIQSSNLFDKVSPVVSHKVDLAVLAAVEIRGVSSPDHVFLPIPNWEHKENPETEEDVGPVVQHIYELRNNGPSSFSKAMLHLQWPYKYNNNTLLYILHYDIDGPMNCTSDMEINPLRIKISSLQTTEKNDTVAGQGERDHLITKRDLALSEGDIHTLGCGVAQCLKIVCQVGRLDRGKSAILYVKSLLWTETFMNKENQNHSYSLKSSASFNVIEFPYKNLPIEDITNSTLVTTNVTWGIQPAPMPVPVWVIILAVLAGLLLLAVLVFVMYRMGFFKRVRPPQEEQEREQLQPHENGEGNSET
T2 sequence (P05556 21-798 limits assumed, chain 2 of 2): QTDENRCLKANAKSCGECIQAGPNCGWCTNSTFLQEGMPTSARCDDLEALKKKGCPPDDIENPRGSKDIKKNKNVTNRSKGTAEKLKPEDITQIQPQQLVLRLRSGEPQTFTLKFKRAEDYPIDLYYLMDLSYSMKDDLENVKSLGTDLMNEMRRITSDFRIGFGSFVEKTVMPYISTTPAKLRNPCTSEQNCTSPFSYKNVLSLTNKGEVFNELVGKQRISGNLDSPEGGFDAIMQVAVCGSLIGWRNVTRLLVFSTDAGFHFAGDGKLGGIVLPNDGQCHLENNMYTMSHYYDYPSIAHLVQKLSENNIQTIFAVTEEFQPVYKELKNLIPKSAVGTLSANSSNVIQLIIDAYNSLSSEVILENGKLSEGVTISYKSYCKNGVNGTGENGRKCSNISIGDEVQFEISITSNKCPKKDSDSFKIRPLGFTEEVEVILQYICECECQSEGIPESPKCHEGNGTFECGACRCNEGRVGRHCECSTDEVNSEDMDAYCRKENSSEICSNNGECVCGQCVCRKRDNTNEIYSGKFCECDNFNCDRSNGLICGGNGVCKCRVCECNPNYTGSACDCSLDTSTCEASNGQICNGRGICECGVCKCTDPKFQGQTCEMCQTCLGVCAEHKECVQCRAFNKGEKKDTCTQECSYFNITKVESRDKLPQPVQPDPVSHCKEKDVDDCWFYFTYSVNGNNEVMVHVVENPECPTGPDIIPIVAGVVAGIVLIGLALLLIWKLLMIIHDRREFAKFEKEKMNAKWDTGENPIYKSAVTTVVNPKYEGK
T1 sequence (P06756 31-1048 limits assumed, chain 1 of 2): as the sequence (P06756 31-1048 limits assumed, chain 1 of 2) above
T1 sequence (P18564 22-788 limits assumed, chain 2 of 2): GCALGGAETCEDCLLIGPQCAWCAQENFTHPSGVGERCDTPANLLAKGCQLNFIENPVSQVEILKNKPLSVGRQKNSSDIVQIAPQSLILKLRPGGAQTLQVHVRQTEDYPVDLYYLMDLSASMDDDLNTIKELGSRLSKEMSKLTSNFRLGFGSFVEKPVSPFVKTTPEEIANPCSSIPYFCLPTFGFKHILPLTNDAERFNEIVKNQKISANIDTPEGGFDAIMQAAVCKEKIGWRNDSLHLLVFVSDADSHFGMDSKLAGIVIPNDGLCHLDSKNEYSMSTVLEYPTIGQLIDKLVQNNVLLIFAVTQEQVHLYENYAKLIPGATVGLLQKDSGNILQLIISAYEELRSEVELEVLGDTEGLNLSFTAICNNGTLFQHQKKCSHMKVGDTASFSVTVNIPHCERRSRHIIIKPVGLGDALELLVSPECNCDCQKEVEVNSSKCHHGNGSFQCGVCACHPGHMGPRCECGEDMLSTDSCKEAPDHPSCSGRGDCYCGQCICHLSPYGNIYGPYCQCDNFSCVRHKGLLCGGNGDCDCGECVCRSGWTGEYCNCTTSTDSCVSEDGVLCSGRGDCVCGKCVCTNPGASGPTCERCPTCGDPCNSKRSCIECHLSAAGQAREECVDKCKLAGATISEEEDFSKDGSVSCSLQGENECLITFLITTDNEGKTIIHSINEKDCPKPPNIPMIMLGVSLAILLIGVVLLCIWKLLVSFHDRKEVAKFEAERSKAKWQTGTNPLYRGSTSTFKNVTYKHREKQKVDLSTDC
T3 sequence (P06756 31-1048 limits assumed, chain 1 of 2): as the sequence (P06756 31-1048 limits assumed, chain 1 of 2) above
T3 sequence (P05106 27-788 limits assumed, chain 2 of 2): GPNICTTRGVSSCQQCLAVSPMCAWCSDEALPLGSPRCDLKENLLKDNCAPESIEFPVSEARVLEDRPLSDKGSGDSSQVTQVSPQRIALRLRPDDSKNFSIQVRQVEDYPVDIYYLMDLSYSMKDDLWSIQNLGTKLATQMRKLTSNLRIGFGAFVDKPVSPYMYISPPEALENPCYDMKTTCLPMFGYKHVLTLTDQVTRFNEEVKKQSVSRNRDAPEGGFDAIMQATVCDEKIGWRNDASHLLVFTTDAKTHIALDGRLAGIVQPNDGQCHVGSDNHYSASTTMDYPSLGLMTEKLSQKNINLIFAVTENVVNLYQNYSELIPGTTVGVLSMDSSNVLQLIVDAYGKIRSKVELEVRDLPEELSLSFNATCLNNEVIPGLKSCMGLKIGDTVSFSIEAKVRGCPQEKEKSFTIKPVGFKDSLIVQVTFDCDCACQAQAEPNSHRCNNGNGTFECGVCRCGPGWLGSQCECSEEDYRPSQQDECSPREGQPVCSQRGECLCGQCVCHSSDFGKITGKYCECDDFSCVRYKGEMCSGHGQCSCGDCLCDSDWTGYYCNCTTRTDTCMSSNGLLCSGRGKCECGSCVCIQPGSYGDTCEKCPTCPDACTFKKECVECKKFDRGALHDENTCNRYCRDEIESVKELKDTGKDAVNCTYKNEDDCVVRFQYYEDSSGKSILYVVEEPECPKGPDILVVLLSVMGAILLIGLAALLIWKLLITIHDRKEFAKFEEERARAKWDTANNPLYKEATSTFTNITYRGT
T4 sequence (P06756 31-1048 limits assumed, chain 1 of 2): as the sequence (P06756 31-1048 limits assumed, chain 1 of 2) above
T4 sequence (P26012 43-769 limits assumed, chain 2 of 2): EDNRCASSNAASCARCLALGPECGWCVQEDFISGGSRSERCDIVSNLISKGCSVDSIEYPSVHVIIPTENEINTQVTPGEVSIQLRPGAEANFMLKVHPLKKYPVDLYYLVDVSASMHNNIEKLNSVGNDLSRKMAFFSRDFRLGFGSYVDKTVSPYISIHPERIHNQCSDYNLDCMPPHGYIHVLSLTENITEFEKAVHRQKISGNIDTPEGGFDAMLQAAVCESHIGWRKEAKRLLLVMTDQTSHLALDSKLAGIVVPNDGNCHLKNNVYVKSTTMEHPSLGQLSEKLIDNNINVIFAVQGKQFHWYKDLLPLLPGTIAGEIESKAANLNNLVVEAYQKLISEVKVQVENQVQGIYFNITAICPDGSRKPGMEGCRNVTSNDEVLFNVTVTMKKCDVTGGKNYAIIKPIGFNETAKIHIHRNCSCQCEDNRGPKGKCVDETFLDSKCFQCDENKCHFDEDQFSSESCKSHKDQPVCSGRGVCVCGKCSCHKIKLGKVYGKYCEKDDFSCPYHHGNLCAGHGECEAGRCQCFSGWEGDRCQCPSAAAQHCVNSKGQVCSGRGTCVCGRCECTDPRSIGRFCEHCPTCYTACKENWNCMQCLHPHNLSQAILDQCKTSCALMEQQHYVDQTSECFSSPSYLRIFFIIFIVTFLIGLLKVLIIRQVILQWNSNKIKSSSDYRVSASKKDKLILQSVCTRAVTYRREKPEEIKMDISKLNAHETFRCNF
T5 sequence (P06756 31-1048 limits assumed, chain 1 of 2): as the sequence (P06756 31-1048 limits assumed, chain 1 of 2) above
T5 sequence (P18084 24-799 limits assumed, chain 2 of 2): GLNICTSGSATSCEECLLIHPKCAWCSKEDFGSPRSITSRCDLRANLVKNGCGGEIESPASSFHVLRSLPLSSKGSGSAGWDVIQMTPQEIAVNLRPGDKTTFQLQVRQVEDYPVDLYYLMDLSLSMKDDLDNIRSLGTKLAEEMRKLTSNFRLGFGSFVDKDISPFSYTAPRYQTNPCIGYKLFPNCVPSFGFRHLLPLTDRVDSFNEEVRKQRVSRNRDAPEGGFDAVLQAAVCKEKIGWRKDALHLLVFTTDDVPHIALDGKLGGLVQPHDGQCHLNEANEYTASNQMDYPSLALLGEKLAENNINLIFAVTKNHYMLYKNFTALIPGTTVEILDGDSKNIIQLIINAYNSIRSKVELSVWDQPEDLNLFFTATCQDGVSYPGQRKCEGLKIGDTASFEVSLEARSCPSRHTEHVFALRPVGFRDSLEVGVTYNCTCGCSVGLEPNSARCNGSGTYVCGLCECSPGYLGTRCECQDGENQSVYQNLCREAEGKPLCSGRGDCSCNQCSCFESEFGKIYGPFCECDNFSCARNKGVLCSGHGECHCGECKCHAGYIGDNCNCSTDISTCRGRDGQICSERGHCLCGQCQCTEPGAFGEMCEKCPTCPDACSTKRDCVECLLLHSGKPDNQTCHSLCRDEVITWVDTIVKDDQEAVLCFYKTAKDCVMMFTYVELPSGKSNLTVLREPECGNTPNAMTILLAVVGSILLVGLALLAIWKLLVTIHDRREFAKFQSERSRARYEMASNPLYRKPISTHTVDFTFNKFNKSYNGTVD

EC50 [1]: 1.7 nM | IC50, inhibition of integrin-αvβ1 CHO cell adhesion to LAP-TGFβ (curves in FIG. 12L) [2]: 2.9 nM | EC50 [3]: 6.8 nM | EC50 [4]: 2.6 nM | EC50 [5]: 2.6 nM | IC50, inhibition of CHO cell adhesion to LAP-TGFβ [6]: 1.3 nM | IC50, inhibition of CHO cell adhesion to LAP-TGFβ [7]: 2.1 nM | IC50, inhibition of CHO cell adhesion to LAP-TGFβ [8]: 4.1 nM | IC50, inhibition of CHO cell adhesion to LAP-TGFβ [9]: 2.4 nM | IC50, inhibition of CHO cell adhesion to LAP-TGFβ [10]: 1.6 nM | EC50 [11]: 1.2 nM | EC50 [12]: 8.9 nM
B1: IgG 11867 (antibody, V domains shown)
VH: EVQLVESGGGLVQPGGSLRLSCAASGFDFDSYAIHWVRQAPGKGLEWVAYFYPGHDYSTYADSVKGRFTISADTSKNTAYLQMNSLRAEDTAVYYCARPSPYFSWHQAMDYWGQGTLVTVSS
VL: DIQMTQSPSSLSASVGDRVTITCRASQSVSSAVAWYQQKPGKAPKLLIYSASSLYSGVPSRFSGSRSGTDFTLTISSLQPEDFATYYCQQATGSEVTFGQGTKVEIKR
notes: also called 11867 hG1
